Assay results from patent US20180142016A1 (EUREKA THERAPEUTICS, published 2018).

B1: 601-137 (antibody, V domains shown)
VH: QVQLQQSGAEVKKPGASVKVSCKASGYTFSRYYIHWVRQAPGQGLEWMGIINTDGGTTTYAQKFQGRLTMTRDTSTSTVYMELSSLRSDDTAVYYCARDYGTIDARRFDYWGQGTLVTVSS
VL: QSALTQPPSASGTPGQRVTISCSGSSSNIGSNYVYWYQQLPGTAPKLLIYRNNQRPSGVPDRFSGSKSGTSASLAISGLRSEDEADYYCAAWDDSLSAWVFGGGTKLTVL
modifications: Non-covalent Zenon Alexa Fluor 647 label in the assay, not part of the letters
notes: the phage clone of the same number is m26; also called Antibody 601-137; copies: 2 + 2
B2: 601-43 (antibody, V domains shown)
VH: QVQLQQSGAEVKKPGASVRVSCKASGYSFGNNGITWVRQAPGQGLEWMGWISTYNGNTNYAQKLQGRVTMTTDTSTSTAYMELRSLRSDDTAVYYCARDYYSDSSGYWDDAFDIWGQGTTVTVSS
VL: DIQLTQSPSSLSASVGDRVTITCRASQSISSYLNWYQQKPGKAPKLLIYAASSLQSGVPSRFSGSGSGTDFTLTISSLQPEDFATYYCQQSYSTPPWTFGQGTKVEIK
modifications: Zenon Alexa Fluor 647 label, bound non-covalently to the Fc, is not carried in the letters
notes: the phage clone of the same number is m16; also called Antibody 601-43; copies: 2 + 2
B3: 601-51 (antibody, V domains shown)
VH: not shown
VL: QSALTQPASVSGSPGQSITISCTGTSSDFGDYDYVSWYQQHPGKAPKLMIYDVSDRPSGVSNRFSGSKSGNTASLTISGLQAEDEADYFCSSFTTSSTLVFGGGTKLTVL
modifications: Zenon Alexa Fluor 647 label, bound non-covalently to the Fc, is not carried in the letters
notes: the phage clone of the same number is m19; also called Antibody 601-51; copies: 2 + 2
B4: 601-56 (antibody, V domains shown)
VH: QLQLQESGPGLVKPSETLSLTCTVSGGSISSSSYYWGWIRQPPGKGLEWIGSIYYSGSTYYNPSLKSRVTISVDTSKNQFSLKLGSVTAADTAVYYCARHDGTDAFDIWGQGTTVTVSS
VL: QSVLTQPASVSGSPGQSITISCTGTSSDFGDYDYVSWYQQHPGKAPKLMIYDVSDRPSGVSNRFSGSKSGNTASLTISGLQAEDEADYFCSSLTTSSTLVFGGGTKLTVL
modifications: Zenon Alexa Fluor 647 label, bound non-covalently to the Fc, is not carried in the letters
notes: the phage clone of the same number is m28; also called Antibody 601-56; copies: 2 + 2
B5: 601-69 (antibody, V domains shown)
VH: QVQLVQSGAEVKKPGESLKISCKGSGYSFTSYWIGWVRQMPGKGLEWMGIIYPGDSDTRYSPSFQGQVTISADKSISTAYLQWSSLKASDTAMYYCARLSSSSYDAFDIWGQGTMVTVSS
VL: QSALTQPASVSGSPGQSITISCTGTSSDVGGYNYVSWYQQHPGKAPKLMIYDVSNRPSGVSNRFSGSKSGNTASLTISGLQAEDEADYYCSSYTSSSIPWVFGGGTKLTVL
modifications: Zenon Alexa Fluor 647 label, bound non-covalently to the Fc, is not carried in the letters
notes: the phage clone of the same number is m50; also called Antibody 601-69; copies: 2 + 2
B6: 601-86 (antibody, V domains shown)
VH: QVTLKESGPTLLKPTQTLTLTCTFSGFSLSTRGVGVGWIRQPPGQALEWLTLIYWDDDKRYSPSLKSRLTITKDTSKNQVVLTMTNMESVDTATYYCAQQTMTGAFDIWGQGTTVTVSS
VL: DIQMTQSPSSVSASVGDRVTITCRASQGISTLLAWYQQKPGKAPKLLISSASSLQSGVPARFSGSGSGTDFTLTISSLQPEDFATYYCQQSYRAPTFGQGTKVEIK
modifications: Zenon Alexa Fluor 647 label, bound non-covalently to the Fc, is not carried in the letters
notes: the phage clone of the same number is m27; also called Antibody 601-86; copies: 2 + 2
B7: 601-1 (antibody, V domains shown)
VH: EVQLVESGGGLVKPGGSLRLSCAASGFTFSDYYMSWIRQAPGKGLEWVSYISDSTNTIYYADSVKGRFTVSRDNPKNSLYLQMISLRAEDTAVYYCARAVGAGEGFDHWGQGTLVTVSS
VL: not shown
modifications: Zenon Alexa Fluor 647 label, bound non-covalently to the Fc, is not carried in the letters
notes: the phage clone of the same number is m13; also called Antibody 601-1; copies: 2 + 2

Biological target: T1, human ROR1 on the cell surface (human, UniProt Q01973 30-937)
T1 construct: Endogenous ROR1 of MDA-MB-231, A549, H1299, Jeko-1, primary CLL cells; also called cell surface ROR1; ROR1 positive cells
Assay: flow cytometry, Zenon Alexa Fluor 647-labelled antibody on CD5+ CD19+ CLL cells of patient 13, MFI of the isotype control at the same concentration subtracted
Experimental: Anti-ROR1 and control IgG1 antibodies were labeled using a Zenon® Alexa Fluor® 647 human IgG labeling kit (Life Technologies) according to the manufacturer's directions. Frozen peripheral blood mononuclear cells (PBMC) from CLL patients (AllCells LLC) were thawed and washed in FACS buffer (PBS, 2% heat inactivated FBS, 0.1% NaN3). CLL cells were counted and resuspended at 4×10E6 cell/mL in FACS buffer. 2×10E5 cells per test were then incubated in […] FACS buffer with phycoerythrin (PE)-labeled anti-CD5, […] isothiocyanate (FITC)-labeled anti-CD19 (BD Biosciences) and Zenon® Alexa Fluor® 647-labelled anti-ROR1 or control human IgG1 ET901 (Eureka Therapeutics) for 30 minutes on ice. Following incubation, the cells were washed twice in FACS buffer and fixed in 2% paraformaldehyde in PBS (final concentration). Cells were run on a BD LSRII flow cytometer (BD Biosciences) and analyzed using FlowJo software (Treestar).
CLL cells identified as CD5 and CD19 double positive were assessed for anti-ROR1 or control Ig staining.

T1 sequence (Q01973 30-937 limits assumed): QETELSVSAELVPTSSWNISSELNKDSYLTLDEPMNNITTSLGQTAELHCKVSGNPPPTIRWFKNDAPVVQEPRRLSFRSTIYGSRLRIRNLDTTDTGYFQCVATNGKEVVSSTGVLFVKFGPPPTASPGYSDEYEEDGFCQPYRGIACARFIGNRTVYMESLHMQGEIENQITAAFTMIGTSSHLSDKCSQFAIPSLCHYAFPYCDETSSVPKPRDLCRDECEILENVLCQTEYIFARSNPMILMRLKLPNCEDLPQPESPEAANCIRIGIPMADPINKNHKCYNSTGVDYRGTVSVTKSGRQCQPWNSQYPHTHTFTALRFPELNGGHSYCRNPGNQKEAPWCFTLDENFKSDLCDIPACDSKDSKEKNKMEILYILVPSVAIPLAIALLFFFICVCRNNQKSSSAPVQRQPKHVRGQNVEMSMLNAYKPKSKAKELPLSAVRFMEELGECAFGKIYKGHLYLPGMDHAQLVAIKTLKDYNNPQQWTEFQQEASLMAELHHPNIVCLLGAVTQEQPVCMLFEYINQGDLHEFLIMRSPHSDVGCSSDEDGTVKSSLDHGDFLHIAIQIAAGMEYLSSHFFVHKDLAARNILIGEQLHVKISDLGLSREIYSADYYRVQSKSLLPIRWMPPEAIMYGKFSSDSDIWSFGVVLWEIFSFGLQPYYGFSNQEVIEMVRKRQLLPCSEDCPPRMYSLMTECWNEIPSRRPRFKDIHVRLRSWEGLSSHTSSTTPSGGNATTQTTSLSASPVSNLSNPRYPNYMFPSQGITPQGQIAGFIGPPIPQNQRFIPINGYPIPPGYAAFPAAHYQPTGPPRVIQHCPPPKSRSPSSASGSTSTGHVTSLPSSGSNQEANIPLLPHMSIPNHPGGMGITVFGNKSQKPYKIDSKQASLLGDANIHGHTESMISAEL

Row | Binder | binding result
1 | B1 | binds
2 | B2 | binds
3 | B3 | binds
4 | B4 | binds
5 | B5 | binds
6 | B6 | binds
7 | B7 | binds
